Publication PMC12924673 (Science (New York, N.Y.), 2024)
Blank lines part the entries; values can stand above or below the molecule they belong to.

Experiments:
[1] = molecular target: recombinant ZnF0 of BCL11A; assay: native gel or EMSA
[2] = molecular target: recombinant ZnF0 of BCL11A; assay: crystal structure
[3] = molecular target: recombinant ZnF0 of BCL11A; assay: AUC
[4] = molecular target: recombinant ZnF0 of BCL11A; assay: dynamic light scattering
[5] = molecular target: the molecule itself; assay: native gel or EMSA

stoichiometry N [1]: 4
stoichiometry N [2]: 4
stoichiometry N [3]: 4
stoichiometry N [4]: 4
Molecule: recombinant ZnF0 of BCL11A (domain or fragment)

B1: full-length (FL) BCL11A, recombinant (natural protein, UniProt Q9H165-1 1-835, looked up)
chain: MSRRKQGKPQHLSKREFSPEPLEAILTDDEPDHGPLGAPEGDHDLLTCGQCQMNFPLGDILIFIEHKRKQCNGSLCLEKAVDKPPSPSPIEMKKASNPVEVGIQVTPEDDDCLSTSSRGICPKQEHIADKLLHWRGLSSPRSAHGALIPTPGMSAEYAPQGICKDEPSSYTCTTCKQPFTSAWFLLQHAQNTHGLRIYLESEHGSPLTPRVGIPSGLGAECPSQPPLHGIHIADNNPFNLLRIPGSVSREASGLAEGRFPPTPPLFSPPPRHHLDPHRIERLGAEEMALATHHPSAFDRVLRLNPMAMEPPAMDFSRRLRELAGNTSSPPLSPGRPSPMQRLLQPFQPGSKPPFLATPPLPPLQSAPPPSQPPVKSKSCEFCGKTFKFQSNLVVHRRSHTGEKPYKCNLCDHACTQASKLKRHMKTHMHKSSPMTVKSDDGLSTASSPEPGTSDLVGSASSALKSVVAKFKSENDPNLIPENGDEEEEEDDEEEEEEEEEEEEELTESERVDYGFGLSLEAARHHENSSRGAVVGVGDESRALPDVMQGMVLSSMQHFSEAFHQVLGEKHKRGHLAEAEGHRDTCDEDSVAGESDRIDDGTVNGRGCSPGESASGGLSKKLLLGSPSSLSPFSKRIKLEKEFDLPPAAMPNTENVYSQWLAGYAASRQLKDPFLSFGDSRQSPFASSSEHSSENGSLRFSTPPGELDGGISGRSGTGSGGSTPHISGPGPGRPSSKEGRRSDTCEYCGKVFKNCSNLTVHRRSHTGERPYKCELCNYACAQSSKLTRHMKTHGQVGKDVYKCEICKMPFSVYSTLEKHMKKWHSDRVLNNDIKTE
binding result [5]: binds
